Holding throughout (test): ITC
The target in assay [1] is human U2A′ protein, truncated form that included the first 180 amino acids (LRR domain) (human) (UniProt P09661).
Assay [2] has the same target. This is another data set of the same source.
Assay [3] has the same target. The source holds these as a separate data set.

Where two headings read alike, the source gives them in different places.

Sequence of full-length human U1A protein (P09012 whole entry): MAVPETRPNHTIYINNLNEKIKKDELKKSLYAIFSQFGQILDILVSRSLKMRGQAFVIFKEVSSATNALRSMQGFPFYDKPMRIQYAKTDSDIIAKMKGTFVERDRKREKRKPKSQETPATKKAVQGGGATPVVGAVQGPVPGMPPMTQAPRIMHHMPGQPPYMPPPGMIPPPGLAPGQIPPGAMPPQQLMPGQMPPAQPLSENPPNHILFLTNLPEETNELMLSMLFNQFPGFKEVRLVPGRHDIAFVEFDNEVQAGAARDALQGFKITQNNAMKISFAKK
Sequence of human U2A′ protein, truncated form that included the first 180 amino acids (LRR domain) (human) (P09661 1-180): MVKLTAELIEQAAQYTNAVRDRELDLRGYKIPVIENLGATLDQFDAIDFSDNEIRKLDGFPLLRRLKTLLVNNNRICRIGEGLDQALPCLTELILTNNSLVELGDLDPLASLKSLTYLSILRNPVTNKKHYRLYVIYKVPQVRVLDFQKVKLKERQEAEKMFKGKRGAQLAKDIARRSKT

“full-length human U1A protein (from UniProt P09012 1-282) (natural protein)”: the values for the dH in assay [1], in assay [2] and in assay [3] were 2 kcal/mol, 2.9 kcal/mol and 2.8 kcal/mol, respectively.

The record behind these values is PMC4067145.
